The NTF2 design screens of Basanta et al. (2020)

Experiment: protease stability score; higher = more stable; yeast display proteolysis, trypsin and chymotrypsin;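 note: relative to predicted unfolded state with 0 unfolded-like and 1 meaning tenfold more protease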

Sequence | protease stability score
SEHEEHIKRHIEHVIHHWMTGNWEELLRLMDPNVRLILHIGDKEIHSIGMEEILRRLHEYKKKIKNATIHIDHIDMQGDKTTIHETIHIGDYVYDTRIILVIVNGRIKRIEYQVH | 0.128
SEHEEHLKHISELMVKLFLTGDEELINHLADPDTRLNINGVHFIGREHAVKASKDFWDELGVNHIEIEDRKVINGRVTMTGHVHVGDKYRRTQNYLVVVNGRLKNVEWRID | 0.806
SEHEEHVRSAIERLSHAWRTGNEELFKELVDPHTRFIYGNKNMHGWEISEFFRRRVKGMTLHEVDIHHVEVINGRVHVNSILRGEINGKDTFEDHELHARKVDGRWVVTEMTIR | 0.732
SEHEEIMHKALLFLIYVLLTGDEEILHELLDPNARLDVNGREKHGREDWVQLKRELIHKIKNVRIELHDMKVIGDFLISDQRHDYDGREYKMDVFAFKVDGQWKVREEKLD | 1.44
SEHEEKSKEASEQMFQILRTGDWHKWLELLDPHYQLEIGDKRFHGMEISSELLRHLLEELGVERVEVYVKHQETQGDKVINDGSVDINGRELRMILYARKVDGRWVLKSMKVK | 1.39
SEHEELLERIAEFVMKSWITGNEELDERLADPDARSIVNGKHLHGRELHSEFLRKLLEQLRIHHIHMTDRRVFDGRAIEHSVVHGEIDGVKVTVEVHIRVVVINGRLKSLRIEIR | 0.149
SEHEEMEQDAREIMERVFHTGDETTMRKLADPHVKFHIGDKLHVGRELFDNFVRYVLEKFKNIRVETEEVRDVNGVVIQDLDENYNGQRYKVRWVMVKINGKWTIERVEIR | 0.599
SEHEERMRRYIEIFIHNLITGDEHMINRMADPSTIVIINGVRLWGREEFSKWVRRERERIDHIEMRIEHLDVQGDKATVDVRVEEHVGDKSEERSLIIRLIVVNGRSHSMHFEVR | 1.59
SEHEEVASRVTTEIIHNLLTGDWQRTTELMDPNTKLDVNGQHHHGWELYHKVLREWHEELRVHDMKEHDLKVIDGVAFSNMRVDIEINGVRFETEIRIIVVVVNGRIKSISFESK | 0.771
SEHEEYNRELSELFWHWFQTGDEEMMNKNVDPDARMIVGEKTHHGWEEFVKLLRETLKRLGADHIILRRMNVQGNKSHIDGEIRINGVTIKTELDLVVVDGRISSLRLSFH | 1.05
SEHEHELIEFAELFREIIATGDEDALRRLLDPNTQWDFNGVDLHGRDEVIKELRRWRDRFPNMRVHIRRIRLEVINGRLQLDLHTFVEFDGVEFVQHIHLHIEKVNGRWSVHHIEVRYR | 1.1
SEHEHIAEKMSELLREIVETGDFEQLERLADPHVKLNVDGRNFHGMERFRELKERIRREFGVDHIHVEVERVEVIDGVVINHTKLIIEQGDKRRESRTTLIINKVNGQWRLDSVRVE | 0.488
SEHEHMIQVALELWLHTLHTGDEHKEERLHDPHARLRIGDKELHGREDVIRWMRKVKNVTINRVEVRRINFQGDKAILLVRIDGEFDGRRIDTEVIIIVVKVDGRWLFESMEID | 1.31
SEHEHSSRIAIELLLKTLKTGDERKIEENFDPNVRLIFEGRHIVGREEVFQHIHHLAHELRIEDMKIRRVEHVNGRIHIDLHVVIEINGQRIETDSHMVILKIDGKWKIELLEWR | 1.61
SEHEKFSEKYFQIWVRAVRTGDEDTLRELIDPDDRLDVNGQNFHGWEQVNEHLLHFIRKIKNVRIEVHLEHHEVQGDKIHLDMTLHLNVDGRETRHKTEIIARKIDGRWVFTEFRIK | 2.26
SEHEKHNRDVVRIVLHALLTGDEELFEENADPNVRTEIDVNGKEIQIHGRSKWVEWLRREIERFDHVRIDLKRIDVQGDKLHTDGHLRLKQGDKEITTDVRLHIVVVDGRIDSMEMSVH | 2.1
SEHEKIIVEWTRLLQEILRTGDEEMWLKLLDPHAKTHINGKDIHGMEEAARFWKELHKHMRIEDEEVRETRVVGNKAIYHMERKVNINGRTHEQEVELRVIIVDGQIKKISIHIH | 0.439
SEHEKMMREIAKEYIDWFLTGDEELERNLADPDTRLNVDGREHHGMEEVIDLWRRIGLSNVDLRIHHWRAYGEFVYFDGEYTVGDKKRKVHFEYFVVNGRLKEVRVEIR | 1.51
SEHEKVYHDAIKIYQDNLKTGDEKRMEKFFDPNVIIHIGDKELVGRELVRHQATELARRVDHVEVHIKHVDVQGEKIRINGEIEIEINGRTIRFETHLVILKVNGRWIIHSEFIL | 1.04
SEHELIAHEIVERWVHDVNTGDWENLHRLFDPNTKIDFNGVHLHGRRSLEEWIHEHLRRADHFEVRIKDIRVQGEKSVANTHVNVNINGQEYRRDTSLILIIVDGKVKTMTIRVH | 1.5
SEHEREAREHMEIFRRAFRTGDEQFLTELADPNVRVDVNGVELHGRENFLRVMRHIRFKDIRIKRSREINGVLFIDVRERGIVNGQETTFESEIIILKVDGRWIIEELIIL | 1.39
SEHETEVMRLAEITVKSFLTGDEDTMHHLLDPHVRSDVNGRHHIGRERWLKVVEDMLRHLRLTTIEIHHVDAINGRLHTDTRVNVHINGQEVILETELIIVIVDGVVKEVHWVVK | 0.994
SEHFEIALEILKLFLRSRHTGDWKTMEEMADPDVRLEVGEYTNHGWEEILRVLEELRFEIHFIHDHDVKFQGDKLHLDGHVDGVRRVDGQEVRIVSHIEIISVVVNGRAKSYSEHWV | 0.631
SEHHEEATEATKHFVHLMRTGDFDRLLELADPHVRVRINGKNLIGREDLDKLWKELGLTNVDVRIDDFSHQGDKVEIHTREHFNGRTVDVIVILEKINGQWVIKRREQR | 0.4
SEHHEKLLHLTTLFLEAFWTGDEDIFHHLLDPNVKSIFNGREIHGRHIFSDLRRQIRVERTHVEHEQIVDGRVFMHGKSDGHINGRTHKSHLEIEIVVFDGKVERIKIELR | 0.499

Sequence | protease stability score
SEHHEVTEKLTRIILHQWDTGNERSLRKMMDPNARVEIEIGDKSWEYHGRENFRHAVERFDYLDNKEHKDERIVGDFSIIDGRVDGVQGDKRYDTNVEIIIIIVNGRIRAIRFIVR | 1.26
SEHHKEAREMVEELIRLYETGDEDTLRTLADPHVRQDINGVDYVGREFAADLLIDEMREIRSHIHVHRIHTYNGQVHVDGHLEFIIGDKSYRLRVHMVVEKVDGKWLHRSEHYK | -0.116
SEHHKLLEDFLHLMQEALHTGNEDFIAELADPNVRINWNGKETHGRENLRRMLHEWRERWGIDRIEFHMKSISVQGDKIDLEMQVHINGRHETMHVRITVINGRLKDVRYELR | 1.66
SEHHKLLVEIAHLWIRNVLTGDEDRLKEMADPNVRIHINGVDIHGMEDFVRHVHERLKEIWIRIEIKRMVPYDGRAEVDGTMHVIVNGQKLSRRVHYDIIIVDGVLQEQHVHVE | 1.64
SEHKEEIIQLAEEIFRKIVTGDWERFWELADPHVRFDVGDKTRHGREKVIEYINRFMKELRFERFHIDDIRVIDGVVVIHTKLRFRVGDFQLHHHTRHEIMMVDGRIQFLRIEWE | 0.096
SEHKEEVHEMIKLFLEALRTGDEDWLKTMIDPNDRIRVGDKELHGREEFDKIVHFFKNARIHLHHYSVINGRVTIHMILHFNGKTFEIHIYAEKVDGRWRHRESEMHER | 1.38
SEHKELVEHITKLSWELLKTGDEEILLHLADPDMKVEVGDKEMHGREEWARFLIETLRRVKNLRVDLHRVHIQGEKAHVDGTIFIDGVEFTDQLNFVVINGRIKHINIIDR | 1.46
SEHLEIAMRVIREDLIKSSTGDWRRLEDYLDPHVKIQVGNKEIVGWEEVEKNMEHLRIEFRDYRIKDARNIDGKINVHGEIVEIIRVGNKTYQMRTEVDFIATKVDGQWTIHSIRFN | 1.15
SEHQEVFEEFVRRWIEDMETGNEEQLRHLADPDARIVINGREHHGREWVSTFLMKRIRHLGVKHVEIDDKKQIGEKIHVRVTIHFDGVTVDTELIALKINGRWFMHEVIFR | 1.5
SEHSHFLVELALIFWKALVTGDEERLDRLIDPNTRLEIGDKEEIGRENIIRKLDHIRIKTEEITVRDYRTQGDKFHMIGHVDLHFDFNGVRHRFTTEVRVDLTTVDGKIHSHHIKYR | 0.145
SEHTHAAVRIMELESEYLTTGDWESVRRLLDPHVQVEIGDFHAHGWEERVRRMREIRVKVQDLRIRTIDFYNGRVELHFELHVRIEFNGRDVRQDTEIVLIVLKVNGKWLVDKIRFE | 0.901
SEIDEEIEKHFELYTHALHTGDEHVLRRLLDPDARLTVGDKTFHGREQVVKELSREIHELRVRDMEIKDEKLVGDKLHQDTRLQFKFNGKEHEIITNFIWLKVNGQWVIREVRYD | 1.25
SEIDEFSEKAFRLLLETLQTGDWRLTSELVDPNVRVHFEGHEHVGMEEVSKVVRHWRVKRIELKHLEVIGEKMHMILHQDIEVNGQRVRTDMIVTADKIDGVWLLTEVRIK | 1.59
SEIDEIAHKMAKEWTKDFVTGDEDHWKRLADPNTRVHINGVELHGRETSSEFKEKLRRHMGVDHMELRVRHVDLFNGRVHMETELIYRVGDKEIRTETHVDLDIVNGRIKEVRYEIR | 0.734
SEIDEWLHRWFNLWIDAFITGDEDFLKELADPDVRLVDGDFEKVGREEFTRSMRQYLRHARVDHFRIKHQHMQGDKIHVHGHIEMTINGKHIRHEIRLRFVVINGRFHSMHIEID | 0.975
SEIDHILKLLAELWIRLWLTGDEEIIEELADPNVRLDINGKDAHGWERLSEVLRLEIKEMRIDHHRLREIRVQGNKSEVDGRLRGTFNGKHREVDVHIEIEVVNGRFKRIRIEFR | 1.42
SEIDHIVKELIRRESEYLKTGDEDAFHDLFDPSTRIEINGQEFHGREWHKHLLKELRFHSIELHDWRIVGDKVEMDTRMLTEVGDKRDYRRTTMHATKFDGKWYLTRVIIE | 1.24
SEIDKESEEVARRLLHMEYTGDEEKMIKLLDPHVRLDINGQLFVGREEAERALRQYWHRVDHIHSIEIHDYKTQGDWFHLDIRVDGEIDGQRRDFRVIVHTRIVNGKVKEMHLKFH | 1.65
SEIDKHAEDVMRIWEHVHRTGNEDTLSHLLDPDVKVEIHYDGVDIRLHGMELVSEFLTRFAHHARNKDFKEKDLELQGNKIIRTGIVVFDYDGVEIRRWTHEEIRVVNGRFTHIKKEFH | 0.442
SEIDREAEELVHLLAEFVETGNEERWLELLDPHVRLDFDGVISHGREHYIEFWRRLKENLGIDKVSFRVRRRKTQGEKAHSDMETDINGQKYHMEVLVVVINGVVKHSEFHYN | 1.07
SEIDREHHELLTLLVHLWLTGDWKTFKKYFDPNVRLHQGDFDDHGWEALEETERKHGIEIKDLELHEFHVQGEKIIINLHVVIRQGDKTYRKDMRITYVVVNGRVTSIRMEVR | 0.877
SEIDRLSEELARLFLELVITGDFKTLSHLADPTVKSDINGVDLHGREELYRWVEEFYNELRVSWVLDSIEVQGEKAYVKGKLESRVDGQRHTDQYEIILIIVNGRFKEIIVKRR | 1.5
SEIEEDSRKASRDLMNSIRTGNEEVLKEMADPHVRTDINGREIHGMEKWLNELSEFLEKFKGAKIDLSLKDIRIQGEYIHIHMHVHLRFNGKSDNKDIEIIALKVDGRWLIQEWRIR | 0.834
SEIEEEAKHVSELMVRWMETGDEKEIYKFADPHVRLEYNGREFHGRESILKHRREIIEKWGVTNIRVSPETFDVINGVVHVELILKVNGRNVIVHILIRKIDGRWRIDSESFI | 1.5
SEIEEEIEQAYKLTKHHWETGDEKDIRRNADPHVRVYFNGREYHGWEVLHEVLRLMGAKHVEIHRYEIQGEYVHIDSEVRQGDKRFRMHVESYKVNGRWFIETVFIK | 0.749
